Results on eight molecules are retold here after US10442866 (BEIJING MABWORKS BIOTECH, dated 2019).

The target in assay [1] is T1, human OX40 expressed on HEK293A cells (human, UniProt P43489 29-277).
T1 construct: also called HEK293A/huOX40; HEK293A/human OX40 cells
T1 sequence: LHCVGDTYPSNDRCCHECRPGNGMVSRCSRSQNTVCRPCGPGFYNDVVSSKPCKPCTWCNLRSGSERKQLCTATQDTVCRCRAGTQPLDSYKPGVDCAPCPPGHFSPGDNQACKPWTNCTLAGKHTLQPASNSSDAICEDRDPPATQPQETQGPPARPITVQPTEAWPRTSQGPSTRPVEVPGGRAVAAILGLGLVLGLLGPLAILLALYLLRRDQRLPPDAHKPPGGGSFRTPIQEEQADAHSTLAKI
Nature of the assay: FACS on HEK293A/huOX40 cells.

Assay [2] concerns the target T2, rhesus OX40 expressed on HEK293A cells (rhesus, UniProt P43489 29-277 (human entry)).
T2 construct: also called HEK293A/rhOX40; HEK293A/rhesusOX40 cells
T2 chain: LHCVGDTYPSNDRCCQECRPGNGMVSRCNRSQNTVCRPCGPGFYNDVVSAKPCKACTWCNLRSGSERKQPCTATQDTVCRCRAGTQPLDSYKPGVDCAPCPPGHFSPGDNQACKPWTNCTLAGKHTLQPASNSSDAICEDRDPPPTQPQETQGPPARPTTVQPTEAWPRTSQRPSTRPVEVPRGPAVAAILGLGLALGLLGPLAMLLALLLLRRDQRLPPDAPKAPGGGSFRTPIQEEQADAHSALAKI
The experiment in a line: FACS on HEK293A/rhOX40 cells.

The target of assay [3] is T3, murine OX40-His (Crown, Cat#: E3350-B1707) (mouse, UniProt P47741 20-211).
T3 construct: bought protein; also called mouse OX40-his; muOX40-his; not shown: His tag
T3 sequence: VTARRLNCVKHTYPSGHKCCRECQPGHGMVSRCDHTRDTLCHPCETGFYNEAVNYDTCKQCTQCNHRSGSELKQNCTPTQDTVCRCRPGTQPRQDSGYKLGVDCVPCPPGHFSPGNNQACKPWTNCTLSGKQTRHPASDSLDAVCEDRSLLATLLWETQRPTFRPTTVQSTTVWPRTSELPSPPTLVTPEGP
Nature of the assay: ELISA on coated mouse OX40-His, OD450.

Assay [4] addresses T4, recombinant rhesus OX40-his (Sino Biological, Cat#:90846-C08H) (rhesus monkey, UniProt P43489 29-214 (human entry)).
T4 construct: bought protein; also called monkey OX40-his; rhOX40-his; not shown: His tag
T4 chain: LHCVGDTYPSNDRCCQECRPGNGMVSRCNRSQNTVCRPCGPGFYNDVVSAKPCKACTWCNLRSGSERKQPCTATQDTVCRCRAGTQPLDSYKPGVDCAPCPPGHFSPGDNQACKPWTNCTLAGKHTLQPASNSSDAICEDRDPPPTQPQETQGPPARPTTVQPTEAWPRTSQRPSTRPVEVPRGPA
The experiment in a line: ELISA on coated rhesus OX40-His, OD450.

Assay [5] addresses T5, recombinant human OX40-his (Sino Biological, Cat#:10481-H03H) (human, UniProt P43489 29-214).
T5 construct: bought protein; also called hOX40-his; not shown: His tag
T5 sequence: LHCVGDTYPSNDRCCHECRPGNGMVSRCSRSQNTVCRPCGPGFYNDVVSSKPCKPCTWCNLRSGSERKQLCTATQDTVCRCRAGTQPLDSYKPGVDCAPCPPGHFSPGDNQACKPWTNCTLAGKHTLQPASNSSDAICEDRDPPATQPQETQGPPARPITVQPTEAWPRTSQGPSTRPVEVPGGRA
The experiment in a line: SPR Biacore 8K, OX40-His on chip, antibody injected. On the procedure:
SPR assays were used to determine the binding affinity of the chimetic or humanized anti-OX40 antibodies to human OX40 with the BIAcore™ 8K instrument (GE Life Sciences). Briefly, 100-200 response units (RU) of human OX40-His protein (Sino Biological, CN, Cat#:10481-H03H, Lot no.: MA08MA3003) were coupled to CM5 biosensor chips (Cat#: BR-1005-30, GE Life Sciences), followed by blocking of un-reacted groups with 1M ethanolamine. Serially diluted antibodies at concentrations ranging from 0.3 µM to 10 µM were injected into the SPR running buffer (HBS-EP buffer, pH7.4, GE Life Sciences; US; Cat#:BR-1006-69) at 30 µL/minute. The binding capacitity was calculated with the RUs of blank controls subtracted. The association rate (k_a) and dissociation rate (k_d) were calculated using the one-to-one Langmuir binding model (BIA Evaluation Software, GE Life Sciences). The equilibrium dissociation constant K_D was calculated as the k_d/k_a ratio.

Assay [6] addresses T2, rhesus OX40 expressed on HEK293A cells. Nature of the assay: FACS on HEK293A/rhesus OX40 cells, MFI (panel without title; monkey OX40 by the legend). The protocol: Briefly, 10^5 HEK293A cells were seeded into each well of the 96-well plates and serially diluted anti-OX40 antibodies were added to the plates. After incubated at 4° C. for 1 hour, plates were washed 3 times with PBST. Then, an APC coupled Goat Anti-Mouse IgG (BioLegen, US, Cat#: 405308) diluted 500× was added to the plates. After incubation at 4° C. for 1 hour, the plates were washed with PBS for 3 times and then cell fluorescence was monitored using a FACS machine (BD).
Example 15 Humanized Anti-OX40 Antibodies Bound to Human or Rhesus OX40 Expressed on HEK293A Cells The humanized anti-OX40 antibodies were also tested for their ability of binding to HEK293A/huOX40 cells or HEK293A/rhOX40 cells, following the FACS analysis protocol as described in Example 5.

For assay [7], the target named is T5, recombinant human OX40-his (Sino …). Nature of the assay: ELISA on coated human OX40-His, OD450.
For assay [8], the target named is T3, murine OX40-His (Crown, Cat#: …). The experiment in a line: ELISA on coated mouse OX40-His, OD450. The source holds these as a separate data set.
The target in assay [9] is T4, recombinant rhesus OX40-his (Sino …). The experiment in a line: ELISA on coated rhesus OX40-His, OD450.

Read-outs that look alike come from different tables or passages of the source.

B1: chimeric antibody 6A12 (antibody, human IgG1, kappa, V domains shown)
VH: QVQLQQSGPELVKPGASVKISCKASGYAFSSSWMNWVKQRPGKGLEWIGRIYPGDGITNYNGNFKGKATLTADKSSSTAYMQLSGLTSADSAVYFCAREFIPLGWGTGTTVTVSS
VL: DIVMTQTPFSNPVTLGTSASISCRSSKSLLHSNGITYLYWYLQKPGQSPQLLIYQMSNLASGVPDRFSSSGSGTDFTLRISRVEAEDVGVYYCAQNLELPWTFGGGTKLEIKR
notes: mouse variable regions with human IgG1/kappa constant regions
On to B1, for which the EC50 in assay [1] came to 177 ng/mL; in assay [2] it was 883 ng/mL.

B2: 68C8-VH2VL2 (antibody, human IgG1, kappa, V domains shown)
VH: QVQLVQSGAEVKKPGASVKVSCKVSGDTFTSYWITWVRQRPGKGLEWMGDIHPGSGSTNNNEKFKNRVTMTVDTSTDTAYMELSSLRSEDTAVYYCATLRPYYFVYWGQGTLVTVSS
VL: DIQMTQSPSSLSASVGDRVTITCRASQDISNYLNWYQQKPGKTPKLLIYYTSRLLSGVPSRFSGSGSGTDYTLTISSLQPEDFATYYCQQGNTLPLTFGQGTRLEIKR
notes: humanized; also called 68C8-H2L2
Take B2: in assay [3], the binding result is on record as “no binding (tested: 10000 ng/ml (log 4))”. Also, the binding result in [4] is given as “binds”. Also, in [5], the Kd is 5.07 nM, the koff came out at 0.00105 s⁻¹ and the kon is 207000 M⁻¹ s⁻¹. Further, in assay [6], the binding result was “binds”.

B3: 68C8-VH3VL3 (antibody, human IgG1, kappa, V domains shown)
VH: QVQLVQSGAEVKKPGASVKVSCKVSGDTFTSYWITWVRQRPGQGLEWIGDIHPGSGSTNNNEKFKNRVTLTVDTSTDTAYMELSSLRSEDTAVYYCATLRPYYFVYWGQGTLVTVSS
VL: DIQMTQSPSSLSASVGDRVTITCRASQDISNYLNWYQQKPGKTVKLLIYYTSRLLSGVPSRFSGSGSGTDYTLTISSLQPEDFATYFCQQGNTLPLTFGQGTRLEIKR
notes: humanized; also called 68C8-H3L3
Regarding B3, in [3], the binding result is given as “no binding (tested: 10000 ng/ml (log 4))”. Also, the binding result in assay [4] is recorded as “binds”. In addition, in [5], the Kd is 4.04 nM, the koff is 0.000821 s⁻¹ and the kon was determined as 203000 M⁻¹ s⁻¹. Moreover, in [6], the binding result is recorded as “binds”.

B4: 68C8-VH0VL0 (antibody, human IgG1, kappa, V domains shown)
VH: QVQLVQSGAEVKKPGASVKVSCKVSGDTFTSYWITWVRQAPGKGLEWMGDIHPGSGSTNNNEKFKNRVTMTEDTSTDTAYMELSSLRSEDTAVYYCATLRPYYFVYWGQGTLVTVSS
VL: DIQMTQSPSSLSASVGDRVTITCRASQDISNYLNWYQQKPGKAPKLLIYYTSRLLSGVPSRFSGSGSGTDFTLTISSLQPEDFATYYCQQGNTLPLTFGQGTRLEIKR
notes: humanized; also called 68C8-H0L0
In the case of B4, the binding result in assay [3] is on record as “no binding (tested: 10000 ng/ml (log 4))”. In addition, in assay [4], the binding result is on record as “binds”. In assay [5], the Kd was found to be 4.49 nM, the koff was determined as 0.00184 s⁻¹ and the kon worked out at 410000 M⁻¹ s⁻¹. Also, the binding result in assay [6] was “binds”.

B5: 71H8-VH0VL0 (antibody, human IgG1, kappa, V domains shown)
VH: QVQLVQSGAEVKKPGASVKVSCKVSGDTFTSYWITWVRQAPGKGLEWMGDIYPGSGSTNQNEKFKSRVTMTEDTSTDTAYMELSSLRSEDTAVYYCATLRPYYFVYWGQGTLVTVSS
VL: DIQMTQSPSSLSASVGDRVTITCRASQDISNYLNWYQQKPGKAPKLLIYYTSRLLSGVPSRFSGSGSGTDFTLTISSLQPEDFATYYCQQGNTLPLTFGQGTRLEIKR
notes: humanized; also called 71H8-H0L0
Turning to B5, in assay [7], the “EC50 (read off the curve)” value is about 3 ng/mL. For the same molecule, the binding result in assay [8] is “no binding (tested: 10000 ng/ml (log 4))”. Besides, the “EC50 (read off the curve)” value in assay [9] is about 3 ng/mL. For the same molecule, in [5], the Kd came to 9.21 nM, the koff came out at 0.00274 s⁻¹ and the kon amounted to 297000 M⁻¹ s⁻¹. Further, the binding result in [6] was “binds”.

B6: 71H8-VH2VL2 (antibody, human IgG1, kappa, V domains shown)
VH: QVQLVQSGAEVKKPGASVKVSCKVSGYTFTSYWITWVRQRPGKGLEWMGDIYPGSGSTNQNEKFKSRVTMTVDTSTDTAYMELSSLRSEDTAVYYCATLRPYYFVYWGQGTLVTVSS
VL: DIQMTQSPSSLSASVGDRVTITCRASQDISNYLNWYQQKPGKTPKLLIYYTSRLLSGVPSRFSGSGSGTDYTLTISSLQPEDFATYYCQQGNTLPLTFGQGTRLEIKR
notes: humanized; also called 71H8-H2L2
In the case of B6, the “EC50 (read off the curve)” value in assay [7] is about 3 ng/mL. For the same molecule, in [8], the binding result was “no binding (tested: 10000 ng/ml (log 4))”. For the same molecule, the “EC50 (read off the curve)” value in assay [9] was about 3 ng/mL. In addition, in assay [5], the Kd was 4.81 nM, the koff stood at 0.00172 s⁻¹ and the kon came to 358000 M⁻¹ s⁻¹. Besides, in assay [6], the binding result was “binds”.

B7: 68C8-VH3VL2 (antibody, human IgG1, kappa, V domains shown)
VH: QVQLVQSGAEVKKPGASVKVSCKVSGDTFTSYWITWVRQRPGQGLEWIGDIHPGSGSTNNNEKFKNRVTLTVDTSTDTAYMELSSLRSEDTAVYYCATLRPYYFVYWGQGTLVTVSS
VL: DIQMTQSPSSLSASVGDRVTITCRASQDISNYLNWYQQKPGKTPKLLIYYTSRLLSGVPSRFSGSGSGTDYTLTISSLQPEDFATYYCQQGNTLPLTFGQGTRLEIKR
notes: humanized; also called 68C8-H3L2
Turning to B7, in [3], the binding result was “no binding (tested: 10000 ng/ml (log 4))”. Moreover, the binding result in assay [4] is reported as “binds”. Also, in assay [5], the Kd was determined as 9.55 nM, the koff was 0.00157 s⁻¹ and the kon came to 165000 M⁻¹ s⁻¹. For the same molecule, in assay [6], the binding result was “binds”.

B8: 71H8-VH3VL3 (antibody, human IgG1, kappa, V domains shown)
VH: QVQLVQSGAEVKKPGASVKVSCKVSGYTFTSYWITWVRQRPGQGLEWIGDIYPGSGSTNQNEKFKSRVTLTVDTSTDTAYMELSSLRSEDTAVYYCATLRPYYFVYWGQGTLVTVSS
VL: DIQMTQSPSSLSASVGDRVTITCRASQDISNYLNWYQQKPGKTVKLLIYYTSRLLSGVPSRFSGSGSGTDYTLTISSLQPEDFATYFCQQGNTLPLTFGQGTRLEIKR
notes: humanized; also called 71H8-H3L3
Regarding B8, the “EC50 (read off the curve)” value in [7] was about 3 ng/mL. Moreover, the binding result in [8] is recorded as “no binding (tested: 10000 ng/ml (log 4))”. The “EC50 (read off the curve)” value in assay [9] is about 3 ng/mL. For the same molecule, in assay [5], the Kd was 6.36 nM, the koff stood at 0.00207 s⁻¹ and the kon is 325000 M⁻¹ s⁻¹. Moreover, the binding result in assay [6] was “binds”.
